Substitutions are numbered along the chain they refer to. Names may count otherwise.
B1: mCER-Prx2(C51S), expressed in HEK293 cells (natural protein)
chain: MASGNARIGKPAPDFKATAVVDGAFKEVKLSDYKGKYVVLFFYPLDFTFVSPTEIIAFSNRAEDFRKLGCEVLGVSVDSQFTHLAWINTPRKEGGLGPLNIPLLADVTRRLSEDYGVLKTDEGIAYRGLFIIDGKGVLRQITVNDLPVGRSVDEALRLVQAFQYTDEHGEVCPAGWKPGSDTIKPNVDDSKEYFSKHN
B2: recombinant mCER-Prx2 (natural protein)
chain: B1 chain with S51C
B3: recombinant mCER-Prx2(C51S) (natural protein)
chain: B1 chain
B4: mCER-Prx2(T82E/A85E), expressed in HEK293 cells (natural protein)
chain: B1 chain with S51C, T82E, A85E
B5: recombinant mCER-Prx2(C172S) (natural protein)
chain: B1 chain with S51C, C172S

Key:
[1] = target: the molecule itself; assay: FRET or BRET
[2] = target: the molecule itself; assay: SEC

Row | Protein | stoichiometry N [1] | stoichiometry N [2]
1 | B1 | 10 | –
2 | B2 | – | 10
3 | B3 | – | 10
4 | B4 | 2 | –
5 | B5 | – | 2

— article PMC7368258 (Proceedings of the National Academy of Sciences of the …, 2020)
